# In patent US20050058639A1 (AstraZeneca / MedImmune, published 2005):
# T1: human GRO/MGSA (human, UniProt P09341 35-107)
# T1 construct: also called hGRO/MGSA; GRO-alpha
# T1 sequence (looked up): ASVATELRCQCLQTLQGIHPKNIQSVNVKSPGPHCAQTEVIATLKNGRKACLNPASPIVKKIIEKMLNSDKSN
# T2: human RANTES (human, UniProt P13501 24-91)
# T2 construct: also called hRANTES
# T2 sequence (looked up): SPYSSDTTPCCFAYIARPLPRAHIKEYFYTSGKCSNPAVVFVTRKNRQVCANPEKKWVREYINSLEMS
# T3: human MIP-1-alpha (human, UniProt P10147 24-92, limits assumed)
# T3 construct: also called hMIP-1-alpha
# T3 sequence (looked up): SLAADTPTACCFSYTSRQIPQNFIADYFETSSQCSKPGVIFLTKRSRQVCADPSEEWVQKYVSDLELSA
# T4: recombinant human MCP-2 (human, UniProt P80075 24-99)
# T4 construct: also called rhMCP-2
# T4 sequence (looked up): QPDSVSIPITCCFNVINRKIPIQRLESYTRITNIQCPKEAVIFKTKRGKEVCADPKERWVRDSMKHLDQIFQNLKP
# Key:
# [1] = target: T5, human monocyte chemo-attractant protein-1 (MCP-1) (human, UniProt P13500 24-99); assay: cell-based or functional assay
# rat MCP-1 = rat MCP-1 (rat, UniProt P14844 24-148); assay: ELISA, coated antigen
# Procedure: (§1) Determining cross-reactivity of anti-MCP-1 antibodies with other chemokines. ELISA plates (Fisher Cat. No. 12-565-136) were coated with 50 μl/well of MCP-1, MCP-2, MCP-3, MCP-4, RANTES, GRO-alpha, MIP-1 alpha, eotaxin, rat MCP-1 and mouse JE (2 μg/ml) in coating buffer (0.1 M carbonate buffer, pH 9.6, NaHCO₃ 8.4 g/L, then incubated at 4° C. overnight. After incubation, the plates were washed with washing buffer (0.05% Tween 20 in PBS) three times. 200 μL/well blocking buffer (0.5% BSA, 0.1% Tween 20, 0.01% Thimerosal in 1×PBS) were added and the plates incubated at room temperature for 1 hour. After incubation, the plates were washed with washing buffer three times. 50 μL/well of hybridoma supernatants, and positive and negative controls (positive control was anti-MCP-1 antibody purchased from R&D Sciences, and negative control was an antibody to Keyhole Limpet Hemocyanin produced at Abgenix) were added and the plates incubated at room temperature for 2 hours. After incubation, the plates were washed three times with washing buffer. […] After incubation, the plates were washed three times with washing buffer and 100 μL/well of TMB (BioFX Lab. Cat. #TMSK-0 100-01) was added and the plates allowed to develop for about 10 minutes.
# recombinant human MCP-3 = target: T6, recombinant human MCP-3 (human, UniProt P80098 24-99); assay: ELISA, coated antigen
# T6 construct: also called rhMCP-3
# Procedure: as §1
# recombinant human MCP-4 = target: T7, recombinant human MCP-4 (human, UniProt Q99616 24-98, limits assumed); assay: ELISA, coated antigen
# T7 construct: also called rhMCP-4
# Procedure: as §1
# [2] = target: T8, recombinant mouse JE/MCP-1 (mouse, UniProt P10148 24-148); assay: ELISA, coated antigen
# T8 construct: also called rmJE/MCP-1
# Procedure: as §1
# human GRO/MGSA = target: T1, human GRO/MGSA; assay: ELISA, coated antigen
# Procedure: as §1
# human RANTES = target: T2, human RANTES; assay: ELISA, coated antigen
# Procedure: as §1
# human MIP-1-alpha = target: T3, human MIP-1-alpha; assay: ELISA, coated antigen
# Procedure: as §1
# human eotaxin = target: T9, human eotaxin (human, UniProt P51671 24-97); assay: ELISA, coated antigen
# T9 construct: also called hEotaxin
# Procedure: as §1
# [3] = target: T5, human monocyte chemo-attractant …; assay: ELISA, coated antigen
# Procedure: as §1
# recombinant human MCP-2 = target: T4, recombinant human MCP-2; assay: ELISA, coated antigen
# Procedure: as §1
# [4] = target: T5, human monocyte chemo-attractant …; assay: ELISA, hybridoma supernatant on coated MCP-1
# Procedure: Selection of candidate antibodies for ELISA. After 14 days of culture, hybridoma supernatants were screened for MCP-1-specific monoclonal antibodies. The ELISA plates (Fisher, Cat. No. 12-565-136) were coated with 50 μl/well of MCP-1 (2 μg/mL) in Coating Buffer (0.1 M Carbonate Buffer, pH 9.6, NaHCO₃8.4 g/L), then incubated at 4° C. overnight. After incubation, the plates were washed with Washing Buffer (0.05% Tween 20 in PBS) three times. 200 μl/well Blocking Buffer (0.5% BSA, 0.1% Tween 20, 0.01% Thimerosal in 1× PBS) were added and the plates incubated at room temperature for 1 hour. After incubation, the plates were washed with Washing Buffer three times. 50 μL/well of hybridoma supernatants, and positive and negative controls were added and the plates incubated at room temperature for 2 hours.
# The positive control used throughout was XMG2 MCP-1 Group 1, footpad N160-7 and the negative control was XMG2 KLH Group 1, footpad L627-6. After incubation, the plates were washed three times with Washing Buffer. […] In the secondary screen, three sets of samples (positives in first screening) were screened, one set for hIgG detection, one set for hKappa detection, and one set for hlambda detection. After incubation, the plates were washed three times with Washing Buffer. 100 μL/well of TMB (BioFX Lab. Cat. #TMSK-0100-01) were added and the plates allowed to develop for about 10 minutes (until negative control wells barely started to show color), then 50 μL/well stop solution (TMB Stop Solution (BioFX Lab. Cat. #STPR-0100-01) were added and the plates read on an ELISA plate reader at wavelength 450 nm. The OD readings from the positive wells are presented in Table 9.
# T7 sequence (Q99616 24-98 limits assumed): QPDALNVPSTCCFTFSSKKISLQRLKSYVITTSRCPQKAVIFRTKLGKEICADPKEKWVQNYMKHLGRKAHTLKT
# T6 sequence (P80098 24-99 limits assumed): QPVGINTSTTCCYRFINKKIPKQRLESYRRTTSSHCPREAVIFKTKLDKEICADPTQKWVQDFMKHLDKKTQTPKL
# T8 sequence (P10148 24-148 limits assumed): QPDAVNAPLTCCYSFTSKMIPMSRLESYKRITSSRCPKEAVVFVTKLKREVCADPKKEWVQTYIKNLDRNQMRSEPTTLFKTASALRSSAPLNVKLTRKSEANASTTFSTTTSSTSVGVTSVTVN
# T5 sequence (P13500 24-99): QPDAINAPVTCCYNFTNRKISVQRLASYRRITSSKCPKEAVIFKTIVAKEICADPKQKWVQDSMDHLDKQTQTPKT
# T9 sequence (P51671 24-97 limits assumed): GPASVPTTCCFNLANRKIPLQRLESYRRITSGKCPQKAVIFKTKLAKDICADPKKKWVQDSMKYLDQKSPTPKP
# Chain of rat MCP-1 (P14844 24-148 limits assumed): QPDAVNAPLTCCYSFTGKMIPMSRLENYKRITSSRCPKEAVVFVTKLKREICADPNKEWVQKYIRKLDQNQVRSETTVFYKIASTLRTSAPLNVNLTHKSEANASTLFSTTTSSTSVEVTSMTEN
Binder,IC50 Ca++ Flux [1] [µg/mL],IC50 Chemotaxis [1] [µg/mL],ELISA OD (rat MCP-1) [OD450],ELISA OD (recombinant human MCP-3) [OD450],ELISA OD (recombinant human MCP-4) [OD450],ELISA OD [2] [OD450],ELISA OD (human GRO/MGSA) [OD450],ELISA OD (human RANTES) [OD450],ELISA OD (human MIP-1-alpha) [OD450],ELISA OD (human eotaxin) [OD450],ELISA OD [3] [OD450],ELISA OD (recombinant human MCP-2) [OD450],ELISA OD-MCP-1 [4] [OD450]
"anti-MCP-1 mAb 1.8.1 (antibody, V domains shown) VH: QVQLVQSGAEVKKPGASVKVSCKVSGHIFTELSIHWVRQAPGKGLEWMGGFDPEDGETIYAQKFQGRVTMTEDTSTDTVYMELSSLRSEDTAVYYCATNDFWSGYFDYWGQGTLVTVSS VL: DIVMTQSPGSLAVSLGERATINCKSSQSILFRSNNKNYLTWYQQKPGQPPKLLIYWASIRESGVPDRFSGSGSGSNFTLTITSLQAEDVAIYYCQQYYSSPWTFGQGTKVEIKR",0.26,0.88,0.049,0.054,0.046,0.045,0.06,0.045,0.045,0.047,1.16,0.048,3.47
"anti-MCP-1 mAb 1.10.1 (antibody, V domains shown) VH: QVQLVQSGAEVKKPGASVKVSCKVSGYTLTELSMHWVRQAPGKGLEWMGGFDPEDGETIYAQKFQGRVTMTEDTSTDTAYMELSSLRSEDTAVYYCATNEFWSGYFDYWGQGTLVTVSS VL: not shown",0.18,1.2,0.059,0.047,0.052,0.041,0.043,0.042,0.043,0.05,1.26,0.04,3.85
"anti-MCP-1 mAb 1.12.1 (antibody, V domains shown) VH: QVQLVQSGAEVKKPGASVKVSCKVSGYTLTELSMHWVRQAPGKGLEWMGGFDPEDGETIYAQKFQGRVTMTEDTSTDTAYMELSSLRSEDTAVYYCATNDFWSGYYNYWGQGTLVTVSS VL: not shown",0.13,0.35,0.062,0.046,0.044,0.042,0.046,0.046,0.046,0.044,0.933,0.042,4
"anti-MCP-1 mAb 1.11.1 (antibody, V domains shown) VH: QVQVVQSGAEVKNPGASVKVSCKVSGSTLTELSMHWVRQAPGKGLEWMGGFDPEDGETIYAQKFQGRVTMTEDTSTDTVYMELSSLRSEDTAVYYCATNDFWSGYFDYWGQGTLVTVSS VL: DIVMTQSPDSLAVSLGERATITCKSSQTVLYSSNNKNYLVWYQQKSGQPPKLLIHWASIRESGVPDRFSGSGSGTDFTLTISSLQAEDVAVYYCQQYYSSPWTFGQGTKVEIKR",0.098,0.81,0.052,0.043,0.043,0.041,0.042,0.042,0.042,0.049,1.34,0.041,3.9
